Assay results published in patent US7226755.

B1: recombinant HPTPbeta catalytic domain (protein)
chain: GDRPLSVHLNLGQKGNRKTSCPIKINQFEGHFMKLQADSNYLLSKEYEELKDVGRNQSCDIALLPENRGKNRYNNILPYDATRVKLSNVDDDPCSDYINASYIPGNNFRREYIVTQGPLPGTKDDFWKMVWEQNVHNIVMVTQCVEKGRVKCDHYWPADQDSLYYGDLILQMLSESVLPEWTIREFKICGEEQLDAHRLIRHFHYTVWPDHGVPETTQSLIQFVRTVRDYINRSPGAGPTVVHCSAGVGRTGTFIALDRILQQLDSKDSVDIYGAVHDLRLHRVHMVQTECQYVYLHQCVRDVLRARKLRSEQHHHHHH
B2: full length HPTPbeta protein (splice variant lacking FNIII repeat 5) (protein)
chain: EPERCNFTLAESKASSHSVSIQWRILGSPCNFSLIYSSDTLGAALCPTFRIDNTTYGCNLQDLQAGTIYNFKIISLDEERTVVLQTDPLPPARFGVSKEKTTSTGLHVWWTPSSGKVTSYEVQLFDENNQKIQGVQIQESTSWNEYTFFNLTAGSKYNIAITAVSGGKRSFSVYTNGSTVPSPVKDIGISTKANSLLISWSHGSGNVERYRLMLMDKGILVHGGVVDKHATSYAFHGLTPGYLYNLTVMTEAAGLQNYRWKLVRTAPMEVSNLKVTNDGSLTSLKVKWQRPPGNVDSYNITLSHKGTIKESRVLAPWITETHFKELVPGRLYQVTVSCVSGELSAQKMAVGRTFPLAVLQLRVKHANETSLSIMWQTPVAEWEKYIISLADRDLLLIHKSLSKDAKEFTFTDLVPGRKYMATVTSISGDLKNSSSVKGRTVPAQVTDLHVANQGMTSSLFTNWTQAQGDVEFYQVLLIHENVVIKNESISSETSRYSFHSLKSGSLYSVVVTTVSGGISSRQVVVEGRTVPSSVSGVTVNNSGRNDYLSVSWLLAPGDVDNYEVTLSHDGKVVQSLVIAKSVRECSFSSLTPGRLYTVTITTRSGKYENHSFSQERTVPDKVQGVSVSNSARSDYLRVSWVHATGDFDHYEVTIKNKNNFIQTKSIPKSENECVFVQLVPGRLYSVTVTTKSGQYEANEQGNGRTIPEPVKDLTLRNRSTEDLHVTWSGANGDVDQYEIQLLFNDMKVFPPFHLVNTATEYRFTSLTPGRQYKILVLTISGDVQQSAFIEGFTVPSAVKNIHISPNGATDSLTVNWTPGGGDVDSYTVSAFRHSQKVDSQTIPKHVFEHTFHRLEAGEQYQIMIASVSGSLKNQINVVGRTVPASVQGVIADNAYSSYSLIVSWQKAAGVAERYDILLLTENGILLRNTSEPATTKQHKFEDLTPGKKYKIQILTVSGGLFSKEAQTEGRTVPAAVTDLRITENSTRHLSFRWTASEGELSWYNIFLYNPDGNLQERAQVDPLVQSFSFQNLLQGRMYKMVIVTHSGELSNESFIFGRTVPASVSHLRGSNRNTTDSLWFNWSPASGDFDFYELILYNPNGTKKENWKDKDLTEWRFQGLVPGRKYVLWVVTHSGDLSNKVTAESRTAPSPPSLMSFADIANTSLAITWKGPPDWTDYNDFELQWLPRDALTVFNPYNNRKSEGRIVYGLRPGRSYQFNVKTVSGDSWKTYSKPIFGSVRTKPDKIQNLHCRPQNSTAIACSWIPPDSDFDGYSIECRKMDTQEVEFSRKLEKEKSLLNIMMLVPHKRYLVSIKVQSAGMTSEVVEDSTITMIDRPPPPPPHIRVNEKDVLISKSSINFTVNCSWFSDTNGAVKYFTVVVREADGSDELKPEQQHPLPSYLEYRHNASIRVYQTNYFASKCAENPNSNSKSFNIKLGAEMESLGGKCDPTQQKFCDGPLKPHTAYRISIRAFTQLFDEDLKEFTKPLYSDTFFSLPITTESEPLFGAIEGVSAGLFLIGMLVAVVALLICRQKVSHGRERPSARLSIRRDRPLSVHLNLGQKGNRKTSCPIKINQFEGHFMKLQADSNYLLSKEYEELKDVGRNQSCDIALLPENRGKNRYNNILPYDATRVKLSNVDDDPCSDYINASYIPGNNFRREYIVTQGPLPGTKDDFWKMVWEQNVHNIVMVTQCVEKGRVKCDHYWPADQDSLYYGDLILQMLSESVLPEWTIREFKICGEEQLDAHRLIRHFHYTVWPDHGVPETTQSLIQFVRTVRDYINRSPGAGPTVVHCSAGVGRTGTFIALDRILQQLDSKDSVDIYGAVHDLRLHRVHMVQTECQYVYLHQCVRDVLRARKLRSEQENPLFPIYENVNPEYHRDPVYSRH

How the values were obtained:
[1] = target: recombinant GST fusion of the VEGFR2 intracellular kinase domain
recombinant GST fusion of the VEGFR2 intracellular kinase domain, sequence (chain, as listed by the source): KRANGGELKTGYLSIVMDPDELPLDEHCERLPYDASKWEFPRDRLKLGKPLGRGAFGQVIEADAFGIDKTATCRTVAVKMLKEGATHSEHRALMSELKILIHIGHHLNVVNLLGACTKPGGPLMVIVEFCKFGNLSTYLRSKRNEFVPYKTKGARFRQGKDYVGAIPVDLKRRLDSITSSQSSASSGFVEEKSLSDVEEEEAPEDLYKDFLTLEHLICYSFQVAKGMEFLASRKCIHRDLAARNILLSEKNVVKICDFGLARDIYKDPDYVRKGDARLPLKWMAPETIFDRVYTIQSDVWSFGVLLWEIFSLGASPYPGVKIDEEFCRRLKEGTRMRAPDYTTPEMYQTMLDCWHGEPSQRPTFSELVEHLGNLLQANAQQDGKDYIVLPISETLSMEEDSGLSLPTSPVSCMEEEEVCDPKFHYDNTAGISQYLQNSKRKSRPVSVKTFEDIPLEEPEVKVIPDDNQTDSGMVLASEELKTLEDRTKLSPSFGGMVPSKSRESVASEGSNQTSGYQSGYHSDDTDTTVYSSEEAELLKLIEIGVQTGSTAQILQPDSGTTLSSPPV

[2] = target: T1, recombinant GST fusion of the Tie-2 intracellular kinase domain
T1 chain: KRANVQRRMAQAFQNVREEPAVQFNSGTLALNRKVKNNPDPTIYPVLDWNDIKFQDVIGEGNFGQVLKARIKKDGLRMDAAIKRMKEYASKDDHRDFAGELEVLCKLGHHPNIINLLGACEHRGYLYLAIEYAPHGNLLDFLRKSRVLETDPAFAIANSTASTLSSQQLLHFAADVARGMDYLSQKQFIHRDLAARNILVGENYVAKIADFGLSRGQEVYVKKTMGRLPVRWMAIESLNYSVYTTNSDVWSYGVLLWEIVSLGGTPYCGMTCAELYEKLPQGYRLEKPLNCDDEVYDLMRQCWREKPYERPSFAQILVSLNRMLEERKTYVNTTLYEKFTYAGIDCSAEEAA

[3] = target: full length human VEGF receptor type 2 (VEGFR2)
full length human VEGF receptor type 2 (VEGFR2), sequence (chain, as listed by the source): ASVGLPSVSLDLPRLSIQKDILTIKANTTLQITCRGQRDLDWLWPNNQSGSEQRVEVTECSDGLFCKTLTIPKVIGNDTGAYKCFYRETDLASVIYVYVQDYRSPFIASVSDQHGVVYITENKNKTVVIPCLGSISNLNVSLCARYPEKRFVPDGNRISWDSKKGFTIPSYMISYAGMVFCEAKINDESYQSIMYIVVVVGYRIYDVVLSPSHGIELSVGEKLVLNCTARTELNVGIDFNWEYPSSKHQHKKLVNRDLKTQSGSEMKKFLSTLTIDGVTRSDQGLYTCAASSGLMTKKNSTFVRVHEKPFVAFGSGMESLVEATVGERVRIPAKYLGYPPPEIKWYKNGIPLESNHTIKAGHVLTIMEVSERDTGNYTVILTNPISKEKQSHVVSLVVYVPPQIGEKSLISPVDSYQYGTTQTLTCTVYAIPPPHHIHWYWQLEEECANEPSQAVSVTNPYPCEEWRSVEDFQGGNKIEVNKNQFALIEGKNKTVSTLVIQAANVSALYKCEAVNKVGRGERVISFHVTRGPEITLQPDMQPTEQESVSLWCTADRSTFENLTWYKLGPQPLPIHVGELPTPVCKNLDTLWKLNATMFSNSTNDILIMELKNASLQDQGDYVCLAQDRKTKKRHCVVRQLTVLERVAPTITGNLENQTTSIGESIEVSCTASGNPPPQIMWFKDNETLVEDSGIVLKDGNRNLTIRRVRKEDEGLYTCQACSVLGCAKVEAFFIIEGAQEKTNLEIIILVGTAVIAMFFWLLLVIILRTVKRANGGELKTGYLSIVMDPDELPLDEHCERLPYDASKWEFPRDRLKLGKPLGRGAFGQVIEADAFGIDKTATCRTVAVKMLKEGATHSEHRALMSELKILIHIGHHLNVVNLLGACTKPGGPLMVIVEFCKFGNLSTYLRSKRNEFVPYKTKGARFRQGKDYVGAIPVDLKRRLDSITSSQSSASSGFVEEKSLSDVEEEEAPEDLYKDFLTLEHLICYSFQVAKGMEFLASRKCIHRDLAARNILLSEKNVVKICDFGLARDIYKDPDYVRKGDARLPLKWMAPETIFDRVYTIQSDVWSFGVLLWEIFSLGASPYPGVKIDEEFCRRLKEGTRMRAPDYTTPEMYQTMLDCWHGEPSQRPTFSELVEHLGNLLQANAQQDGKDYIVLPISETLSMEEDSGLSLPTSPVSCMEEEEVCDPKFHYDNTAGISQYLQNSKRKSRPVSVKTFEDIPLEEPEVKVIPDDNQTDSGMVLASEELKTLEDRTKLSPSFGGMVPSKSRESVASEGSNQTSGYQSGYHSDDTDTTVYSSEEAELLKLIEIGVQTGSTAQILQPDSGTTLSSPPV

[4] = target: full length human Tie-2 receptor

| Protein | anti-phosphotyrosine western blotting of the bead-bound autophosphorylated kinase domain after 2 hours at 37 C with increasing amounts of recombinant HPTPbeta [1] | anti-phosphotyrosine western blotting of the bead-bound autophosphorylated kinase domain after 2 hours at 37 C with increasing amounts of recombinant HPTPbeta [2] | ligand-induced phosphorylation of the endogenous receptor (anti-phosphotyrosine western blot of immunoprecipitated receptor) in VEGFA stimulated HUVECs [3] | ligand-induced phosphorylation of the endogenous receptor (anti-phosphotyrosine western blot of immunoprecipitated receptor) in Ang1 stimulated HUVECs [4] |
| --- | --- | --- | --- | --- |
| B1 | a dose dependent decrease in the phosphorylation of recombinant VEGFR2 and Tie-2 | a dose dependent decrease in the phosphorylation of recombinant VEGFR2 and Tie-2 |  |  |
| B2 |  |  | adenoviral overexpression of HPTPbeta in endothelial cells decreased in ligand-induced phosphorylation of the endogenous VEGFR2 and Tie-2 receptors | adenoviral overexpression of HPTPbeta in endothelial cells decreased in ligand-induced phosphorylation of the endogenous VEGFR2 and Tie-2 receptors |
